Experimental data: PMC11681983

Tests used:
VEGF [1] = biological target: VEGF (UniProt P15692)
VEGF [2] = biological target: VEGF (UniProt P15692); experiment: SPR; Biacore, n = 3
VEGF [3] = biological target: VEGF (UniProt P15692); experiment: ELISA; direct binding ELISA to IL-17A or VEGF, measured in duplicate, n = 2; who was coated is not told

Chain of VEGF (P15692 whole entry): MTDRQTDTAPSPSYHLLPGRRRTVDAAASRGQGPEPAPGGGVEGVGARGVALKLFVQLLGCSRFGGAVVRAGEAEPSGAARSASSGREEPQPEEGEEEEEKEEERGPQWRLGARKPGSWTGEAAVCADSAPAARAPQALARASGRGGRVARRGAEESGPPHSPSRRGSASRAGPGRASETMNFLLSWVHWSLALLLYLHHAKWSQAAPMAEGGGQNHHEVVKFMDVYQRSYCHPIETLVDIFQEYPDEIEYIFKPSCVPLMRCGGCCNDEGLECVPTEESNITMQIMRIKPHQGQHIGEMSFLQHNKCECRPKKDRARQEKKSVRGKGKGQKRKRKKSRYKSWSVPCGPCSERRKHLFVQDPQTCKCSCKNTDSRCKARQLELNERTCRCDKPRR

B1: bispecific fusion protein 17V05 (bispecific antibody, V domains shown)
VH: EVQLVESGGGLVQPGGSLRLSCAASGFTFSSFDMSWGRQAPGKRLEWVAFMSSGGSTYYPDSVKGRFTISRDNSKNTLYLQMNSLRAEDTAVYYCARGERYGSYWGQGTLVTVSS
VL: DIQMTQSPSSLSASVGDRVTITCKASDHINNWLAWYQQKPGKAPKLLISGATSLETGVPSRFSGSGSGTDYTLTISSLQPEDFATYYCQQYWSTPFTFGSGTKLEIK
B1 was tested, and the luciferase signal of KDR/NFAT-RE HEK293 reporter cells with 30 ng/mL VEGF; blocks signalling of VEGF through KDR (VEGF [1]) was 0.26 nM, the Kd (VEGF [2]) was 0.011 nM and the EC50 (VEGF [3]) was 0.37 nM.
